Experimental data from the Human Domainome abundance scans (Beltran et al. 2025).
± gives the uncertainty stated by the source.

B1: E3 ubiquitin-protein ligase Midline-1, residues 172 to 214; numbered along this chain, O15344 (parent)
chain: GLMCLEHEDEKVNMYCVTDDQLICALCKLVGRHRDHQVAALSE

Variants of: B1
Assay: abundance fitness (aPCA) (normalised: wild type 0, dead -1); higher = more abundant; growth selection in yeast, the domain comes from the species named
Details: Homo sapiens

Point of comparison: GLMCLEHEDEKVNMSCVTDDQLICALCKLVGRHRDHQVAALSE [Y15S], abundance fitness -0.023 ± 0.061. Against it:
- GLMCLEHEDEKVNMYCVTDDQLIKALCKLVGRHRDHQVAALSE [C24K] — lower, -0.885 ± 0.25
- GLMCLEHEDEKVNMYCVTDDQLITALCKLVGRHRDHQVAALSE [C24T] — lower, -0.706 ± 0.23
- GLMCLEHEDEKVNMYCVTDDQLISALCKLVGRHRDHQVAALSE [C24S] — lower, -1.01 ± 0.13
- GLMCLEHEDEKVNMYCVTDDQLIMALCKLVGRHRDHQVAALSE [C24M] — lower, -1.02 ± 0.39
- GLMCLEHEDEKVNMYHVTDDQLICALCKLVGRHRDHQVAALSE [C16H] — lower, -0.215 ± 0.12
- GLMCLEHEDEKVNMYCVTDDQLRCALCKLVGRHRDHQVAALSE [I23R] — lower, -0.237 ± 0.09
- GLMCLEHEDEKVNMYCVTDDQLICALCKLVGRHYDHQVAALSE [R34Y] — lower, -0.544 ± 0.28
- GLMCLEHEDEKVNMYCVTDDQLICALCKLVGRHADHQVAALSE [R34A] — higher, 0.164 ± 0.062
- GLMCLEHEDEKVNMYCVTDDQLICALCKLVGRHEDHQVAALSE [R34E] — within error, 0.063 ± 0.064
- GLMCLEHEDEKVNMYCVTDDQLICALCKLVGRHSDHQVAALSE [R34S] — within error, -0.066 ± 0.066
- GLMCLDHEDEKVNMYCVTDDQLICALCKLVGRHRDHQVAALSE [E6D] — within error, -0.132 ± 0.19
- GLMCLEHEDEQVNMYCVTDDQLICALCKLVGRHRDHQVAALSE [K11Q] — higher, 0.158 ± 0.079
- GLMCLEHEDERVNMYCVTDDQLICALCKLVGRHRDHQVAALSE [K11R] — within error, -0.012 ± 0.052
- GLMCLEHEDEWVNMYCVTDDQLICALCKLVGRHRDHQVAALSE [K11W] — lower, -0.288 ± 0.067
- GLMCLEHEDEKVNMYCVTDGQLICALCKLVGRHRDHQVAALSE [D20G] — within error, -0.075 ± 0.05
- PLMCLEHEDEKVNMYCVTDDQLICALCKLVGRHRDHQVAALSE [G1P] — within error, -0.112 ± 0.23
- ELMCLEHEDEKVNMYCVTDDQLICALCKLVGRHRDHQVAALSE [G1E] — higher, 0.134 ± 0.087
- GLMCLEHEDEKVNMYCVTRDQLICALCKLVGRHRDHQVAALSE [D19R] — lower, -0.65 ± 0.073
- GLMCLEHEDEKVNMYCVTTDQLICALCKLVGRHRDHQVAALSE [D19T] — lower, -0.984 ± 0.31
- GLMCLEHEDEKVNMYCVTCDQLICALCKLVGRHRDHQVAALSE [D19C] — within error, -0.175 ± 0.14
- GLMCLEHEDEKVNMYCVTDDQLICALCKLVGRHRDHQVAANSE [L41N] — within error, -0.034 ± 0.099
- GLMCLEHEDEKVNMYCVTDDQLICALCKLVGRHRDHQVAASSE [L41S] — higher, 0.134 ± 0.057
- GLMCLEHEDEKVNMYCVTDDQLICALCKLVGRHRDHQVAALST [E43T] — within error, -0.221 ± 0.35
- GLMCLEHEDEKVNMYCVTDDQLICALCKLVGRHRDHQVAALSK [E43K] — within error, 0.091 ± 0.22
- GLMCLEHEDEKVNMYCVTDDQLICALCKLVGRHRDHQVAALSP [E43P] — within error, -0.076 ± 0.1
- GLMCLEHEDEKVNMYCVTDDQLICALCKLVGRHRDHQVAALSH [E43H] — lower, -0.197 ± 0.1
- GLMCLEHEDEKVNMECVTDDQLICALCKLVGRHRDHQVAALSE [Y15E] — within error, 0.001 ± 0.058
- GLMCLEHEDEKVNMKCVTDDQLICALCKLVGRHRDHQVAALSE [Y15K] — higher, 0.28 ± 0.078
- GLMCLEHEDEKVNMYCVTDDQLICALCKLVGVHRDHQVAALSE [R32V] — lower, -0.172 ± 0.065
- GLMCLEHEDEKVNMYCVTDDQLICALCKLVGWHRDHQVAALSE [R32W] — lower, -0.323 ± 0.075
- GLMCLEHEDEKVNMYCVTDDQLICALCKLVGCHRDHQVAALSE [R32C] — within error, -0.021 ± 0.08
- GLMCLEHEDEKVNMYCVTDDQLICALCKLVGAHRDHQVAALSE [R32A] — within error, 0.033 ± 0.06
- GLMCLEHEDEKVNMYCVTDDQRICALCKLVGRHRDHQVAALSE [L22R] — higher, 0.311 ± 0.059
- GLMCLEHEDEKVNMYCVTDDQVICALCKLVGRHRDHQVAALSE [L22V] — within error, -0.025 ± 0.074
- GLMCLEHEDEKVNMYCVTDDQHICALCKLVGRHRDHQVAALSE [L22H] — higher, 0.482 ± 0.19
- GLMCLEHEDEKVNMYCVTDDQQICALCKLVGRHRDHQVAALSE [L22Q] — higher, 0.29 ± 0.12
- GLMCLEHEDEKVNMYCVTDDQNICALCKLVGRHRDHQVAALSE [L22N] — higher, 0.698 ± 0.26
- GLMCLEHEDEKVNMYCVTDDQLICALCKLVGRYRDHQVAALSE [H33Y] — lower, -0.603 ± 0.22
- GLMCLEHEDEKVNMYCVTDDQLICALCKLVGRWRDHQVAALSE [H33W] — lower, -1.01 ± 0.13
- GLMCLEHEDEKVNMYCVTDDQLICALCKLVGRFRDHQVAALSE [H33F] — lower, -0.528 ± 0.29
- GLMCLEHEDEKVNMYCVTDDQLICALCKLVGRDRDHQVAALSE [H33D] — lower, -0.647 ± 0.1
- GLMCLEHEDEKVNMYCVTDDQLICALCKLWGRHRDHQVAALSE [V30W] — lower, -0.309 ± 0.077
- GLMCLEHEDEKVNMYCVTDDQLICALCKLLGRHRDHQVAALSE [V30L] — within error, -0.028 ± 0.056
- GLMCLEHEDEKVNMYCVTDDQLICALCKLSGRHRDHQVAALSE [V30S] — higher, 0.114 ± 0.056
- GLMCLEHEDEKVNMYCVTDDQLICALCKLMGRHRDHQVAALSE [V30M] — within error, -0.039 ± 0.07
- GLMCLEHEDEKVNMYCVTDDQLICALCKLGGRHRDHQVAALSE [V30G] — higher, 0.134 ± 0.05
- GLMCLEHEDEKVNMYCVTDDQLICALCKLVGRHRDYQVAALSE [H36Y] — lower, -0.381 ± 0.13
- GLMCLEHEDEKVNMYCVTDDQLICALCKLVGRHRDLQVAALSE [H36L] — lower, -0.753 ± 0.1
- GLMCLEHEDEKVNMYCVTDDQLICALCKLVGRHRDNQVAALSE [H36N] — lower, -0.376 ± 0.27
- GLMCLEHIDEKVNMYCVTDDQLICALCKLVGRHRDHQVAALSE [E8I] — within error, -0.139 ± 0.16
- GLMCLEHCDEKVNMYCVTDDQLICALCKLVGRHRDHQVAALSE [E8C] — higher, 0.16 ± 0.066
- GLMCLEHYDEKVNMYCVTDDQLICALCKLVGRHRDHQVAALSE [E8Y] — lower, -0.243 ± 0.1
- GLMCLEHFDEKVNMYCVTDDQLICALCKLVGRHRDHQVAALSE [E8F] — within error, -0.144 ± 0.17
- GLMCLEHEDEKVNMYCVTDDQLICALCKLVGRHRDHQVWALSE [A39W] — lower, -0.424 ± 0.086
- GLMCNEHEDEKVNMYCVTDDQLICALCKLVGRHRDHQVAALSE [L5N] — within error, -0.124 ± 0.19
- GLMCYEHEDEKVNMYCVTDDQLICALCKLVGRHRDHQVAALSE [L5Y] — within error, -0.021 ± 0.16
- GLMCVEHEDEKVNMYCVTDDQLICALCKLVGRHRDHQVAALSE [L5V] — lower, -0.165 ± 0.064
- GLMCLEHEDEKVNMYCTTDDQLICALCKLVGRHRDHQVAALSE [V17T] — within error, -0.027 ± 0.069
